# Assay results from patent US20030092616A1, “STAT6 activation gene” (priority 2001, published 2003).
# Tested on: STAT6
# Experiment: Screening of full-length cDNA clones for promotion of STAT6 activation (luciferase reporter N4×8-luc)
# Format: cell-based
# Details: NIH3T3 cells cotransfected with N4×8-luc reporter and cDNA plasmid; 48 h culture, then mouse IL-4 0.5 ng/ml for 6 h
# Procedure: As a preferable method, NIH3T3 cells are inoculated on 10% FBS (Fetal Bovine Serum)-containing IMDM medium in a 96-well cell culture plate to a final cell density of 1×10^4 cells/well, and cultured for 24 hours at 37° C., in the presence of 5% CO2. Then, the luciferase reporter plasmid N4×8-luc which has a STAT6 response sequence, and the expression vector are cotransfected into the cells in a well using FuGENE 6 (Roche). After 48 hours of culture at 37° C., in the presence of 5% CO2 mouse IL-4 (Immuno Biological Laboratories Co., Ltd.) is added to a final concentration of 0.5 ng/ml. After culturing for further 6 hours, promoting activity for STAT6 activation is then measured by measuring luciferase activity using a long term luciferase assay system, Picagene LT2.0 (Toyo Ink Mfg). For example, luciferase activity can be measured using PerkinElmer's Wallac ARVOTMST 1420 MULTILABEL COUNTER. The method for gene introduction by FuGENE6, and measurement of luciferase activity by Picagene LT2.0 can be performed respectively according to the attached protocols. In a method of gene introduction with a 96-well plate using FuGENE6, the amount of FuGENE6 per 1 well is suitably 0.3 to 0.5 μl, preferably 0.3 μl; the amount of N4×8-luc reporter plasmid is suitably 50 to 100 ng, preferably 100 ng; and the amount of expression vector is suitably 50 to 100 ng, preferably 100 ng. An ability (action) to promote STAT6 activation refers to an ability to increase the reporter activity (luciferase activity) relative to the control experiment (for cells into which the reporter gene and a null vector were introduced). Increase in reporter activity is preferably by a factor of 1.5 or more, more preferably by a factor of 3 or more, and still more preferably by a factor of 6 or more.
# NIH3T3 cells (purchased from Dainippon Pharmaceutical) were grown to 1×10^4 cells/well in a 96 well plate for cell culture for 24 hours at 37° C. (in the presence of 5% CO2) using 10% FBS containing IMDM medium. Then, 100 ng of luciferase reporter plasmid N4×8-luc having a STAT6 response sequence and 2 μl of the full-length cDNA prepared in above Example 1.(3) were cotransfected into the cells in a well using FuGENE 6 (purchased from Roche) according to the manufacturer's protocol. The luciferase reporter plasmid N4×8-luc having the STAT6 response sequence was constructed as follows. […] 157, 2058-2065 (1996)], oligonucleotides having the following sequences were synthesized:
# The synthesized oligonucleotides were dissolved in sterile water to be 1μg/μl, respectively, mixed in 10 μl lots, and adjusted the volume to 32 μl with sterile water. The solution was heated for 5 min at 90° C., and gradually cooled down to room temperature to prepare a double-stranded oligonucleotide solution. The solution was reacted with T4 polynucleotide kinase (Takara Shuzo) according to the attached manual, then the reaction product was purified in a usual manner. Separately, SV40 promoter region of pGL3-Promoter vector (Promega) was replaced by the HSV thymidine kinase promoter sequence (from −50 to +10) with Hind III site and BglII site to construct a vector tk-luc. The aforesaid double-stranded oligonucleotide fragments were inserted into the XhoI site of this tk-luc vector using T4 DNA ligase (GIBCO/BRL). The obtained clones were sequenced according to a usual method, and clones in which plural oligonucleotide fragments were inserted were selected. […] The four-interlinked DNA fragments were excised from the N4×4-luc with a XhoI and a BglII site and purified to be inserted into a BamHI and a XhoI site of pBluescript II KS+ (Stratagene). The four-interlinked DNA fragments were excised from this plasmid with KpnI and SpeI and inserted into a KpnI and a NheI site of N4×4-luc plasmid to finally obtain N4×8-luc.
row,Molecule,Activity = (luciferase activity of the gene of each SEQ ID NO:)/(luciferase activity of pME18S-FL3)
1,"237 (nucleic acid, listed as Homo sapiens, CDS (66)..(911)) TGCGCGTGCGCAGGGATAAGAGAGCGGTCTGGACAGCGCGTGGCCGGCGCCGCTGTGGGGACAGCATGAGCGGCGGTTGGATGGCGCAGGTTGGAGCGTGGCGAACAGGGGCTCTGGGCCTGGCGCTGCTGCTGCTGCTCGGCCTCGGACTAGGCCTGGAGGCCGCCGCGAGCCCGCTTTCCACCCCGACCTCTGCCCAGGCCGCAGGCCCCAGCTCAGGCTCGTGCCCACCCACCAAGTTCCAGTGCCGCACCAGTGGCTTATGCGTGCCCCTCACCTGGCGCTGCGACAGGGACTTGGACTGCAGCGATGGCAGCGATGAGGAGGAGTGCAGGATTGAGCCATGTACCCAGAAAGGGCAATGCCCACCGCCCCCTGGCCTCCCCTGCCCCTGCACCGGCGTCAGTGACTGCTCTGGGGGAACTGACAAGAAACTGCGCAACTGCAGCCGCCTGGCCTGCCTAGCAGGCGAGCTCCGTTGCACGCTGAGCGATGACTGCATTCCACTCACGTGGCGCTGCGACGGCCACCCAGACTGTCCCGACTCCAGCGACGAGCTCGGCTGTGGAACCAATGAGATCCTCCCGGAAGGGGATGCCACAACCATGGGGCCCCCTGTGACCCTGGAGAGTGTCACCTCTCTCAGGAATGCCACAACCATGGGGCCCCCTGTGACCCTGGAGAGTGTCCCCTCTGTCGGGAATGCCACATCCTCCTCTGCCGGAGACCAGTCTGGAAGCCCAACTGCCTATGGGGTTATTGCAGCTGCTGCGGTGCTCAGTGCAAGCCTGGTCACCGCCACCCTCCTCCTTTTGTCCTGGCTCCGAGCCCAGGAGCGCCTCCGCCCACTGGGGTTACTGGTGGCCATGAAGGAGTCCCTGCTGCTGTCAGAACAGAAGACCTCGCTGCCCTGAGGACAAGCACTTGCCACCACCGTCACTCAGCCCTGGGCGTAGCCGGACAGGAGGAGAGCAGTGATGCGGATGGGTACCCGGGCACACCAGCCCTCAGAGACCTGAGCTCTTCTGGCCACGTGGAACCTCGAACCCGAGCTCCTGCAGAAGTGGCCCTGGAGATTGAGGGTCCCTGGACACTCCCTATGGAGATCCGGGGAGCTAGGATGGGGAACCTGCCACAGCCAGAACTGAGGGGCTGGCCCCAGGCAGCTCCCAGGGGGTAGAACGGCCCTGTGCTTAAGACACTCCTGCTGCCCCGTCTGAGGGTGGCGATTAAAGTTGCT",105.1
2,"219 (nucleic acid, listed as Homo sapiens, CDS (398)..(928)) GTATACCACAGACCAAAGCACCTTTGACATTTTGCAGGATTTGGAGTTTTCTTCTGGGTCCCCAGGTAAAGAGACGAATGAGAGTCCTTGGAGATCAGACCTGTTGATAGATGAAAACTGTTTGCTTTCTCCTCTGGCGGGAGAAGACGATTCATTCCTTTTGGAAGGAAACTCGAATGAGGACTGCAAGCCTCTCATTTTACCGGACACTAAACCCAAAATTAAGGATAATGGAGATCTGGTTTTGTCAAGCCCCAGTAATGTAACACTGCCCCAAGTGAAAACAGAAAAAGAAGATTTCATCGAACTCTGCACCCCTGGGGTAATTAAGCAAGAGAAACTGGGCACAGTTTACTGTCAGGCAAGCTTTCCTGGAGCAAATATAATTGGTAATAAAATGTCTGCCATTTCTGTTCATGGTGTGAGTACCTCTGGAGGACAGATGTACCACTATGACATGAATACAGCATCCCTTTCTCAACAGCAGGATCAGAAGCCTATTTTTAATGTCATTCCACCAATTCCCGTTGGTTCCGAAAATTGGAATAGGTGCCAAGGATCTGGAGATGACAACTTGACTTCTCTGGGGACTCTGAACTTCCCTGGTCGAACAGTTTTTTCTAATGGCTATTCAAGCCCCAGCATGAGACCAGATGTAAGCTCTCCTCCATCCAGCTCCTCAACAGCAACAACAGGACCACCTCCCAAACTCTGCCTGGTGTGCTCTGATGAAGCTTCAGGATGTCATTATGGAGTCTTAACTTGTGGAAGCTGTAAAGTTTTCTTCAAAAGAGCAGTGGAAGGACAGCACAATTACCTATGTGCTGGAAGGAATGATTGCATCATCGATAAAATTCGAAGAAAAAACTGCCCAGCATGCCGCTATCGAAAATGTCTTCAGGCTGGAATGAACCTGGAAGCTCGAAAAAC",12.7
3,"217 (nucleic acid, listed as Homo sapiens, CDS (47)..(1261)) AAGCAATGCGCAGCAGCCAGATCTGTCCAAAGCAGTTTCACTCTCAATGGGACTGTATATGGGAGAGACAGAAACAAAAGTGATGGGAAATGACCTGGGATTCCCACAGCAGGGCCAAATCAGCCTTTCCTCGGGGGAAACAGACTTAAAGCTTTTGGAAGAAAGCATTGCAAACCTCAATAGGTCGACCAGTGTTCCAGAGAACCCCAAGAGTTCAGCATCCACTGCTGTGTCTGCTGCCCCCACAGAGAAGGAGTTTCCAAAAACTCACTCTGATGTATCTTCAGAACAGCAACATTTGAAGGGCCAGACTGGCACCAACGGTGGCAATGTGAAATTGTATACCACAGACCAAAGCACCTTTGACATTTTGCAGGATTTGGAGTTTTCTTCTGGGTCCCCAGGTAAAGAGACGAATGAGAGTCCTTGGAGATCAGACCTGTTGATAGATGAAAACTGTTTGCTTTCTCCTCTGGCGGGAGAAGACGATTCATTCCTTTTGGAAGGAAACTCGAATGAGGACTGCAAGCCTCTCATTTTACCGGACACTAAACCCAAAATTAAGGATAATGGAGATCTGGTTTTGTCAAGCCCCAGTAATGTAACACTGCCCCAAGTGAAAACAGAAAAAGAAGATTTCATCGAACTCTGCACCCCTGGGGTAATTAAGCAAGAGAAACTGGGCACAGTTTACTGTCAGGCAAGCTTTCCTGGAGCAAATATAATTGGTAATAAAATGTCTGCCATTTCTGTTCATGGTGTGAGTACCTCTGGAGGACAGATGTACCACTATGACATGAATACAGCATCCCTTTCTCAACAGCAGGATCAGAAGCCTATTTTTAATGTCATTCCACCAATTCCCGTTGGTTCCGAAAATTGGAATAGGTGCCAAGGATCTGGAGATGACAACTTGACTTCTCTGGGGACTCTGAACTTCCCTGGTCGAACAGTTTTTTCTAATGGCTATTCAAGCCCCAGCATGAGACCAGATGTAAGCCCTCCTCCATCCAGCTCCTCAACAGCAACAACAGGACCACCTCCCAAACTCTGCCTGGTGTGCTCTGATGAAGCTTCAGGATGTTATTATGGAGTCTTAACTTGTGGAAGCTGTAAAGTTTTCTTCAAAAGAGCAGTGGAAGGACAGCACAATTACCTATGTGCTGGAAGGAATGATTGCATCATCGATAAAATTCGAAGAAAAAACTGCCCAGCATGCCGCTATCGAAAATGTCTTCAGGCTGGAATGAACCTGGAAGCTCG",1521.5
4,"26 (nucleic acid, listed as Homo sapiens, CDS (40)..(348)) AGCCAAGGAGCAATAACTGAACGTTTAAGAAGCTTCAGTATGCATGATTTAACAACTATCCAAGGTGATGAGCCTGTGGGACAAAGACCATACCAACCTCTACCAGAAGCAAAAAAGAAAAGTAAACCAGCCCCCAGTGAATCAGCAGGTTATGGAATTCCACTGAAAGACGGAGATGAGAAAACAGATGAAGAAGCAGAGGGGCCATATTCAGATAATGAGATGTTAACACACAAAGGGCTTCGAAGATCGCAAAGCATGAAATCTGTGAAAACCACCAAAGGCCGCAAAGAGGTGCGGTACGGGTCACTAAAATACAAAGTGAAGAAACGACCACAAGTGTATTTTTAGTCATCTACACGTCAAATATCCCAAGACAGATTATGCTAAATACATCGACTTCATCTTCTAACATGATATATTCAGGATTTACACATTAAAATGATTATTT",33.5
